Source: the supplement of paper PMC10126150
± gives the standard deviation of the averaged measurements.

System: ATP
Experiment: switch fluorescence ratio, 500 uM ATP over buffer (Cy3 cluster intensity, sum of 5 cycles each) (fold (ratio)); higher = stronger signal-on switching upon ATP binding; sequences stand for … in TCGTCGGCAGCGTCAGATGTGTATAAGAGACAGTTTTTTTTTTTTTTTTTTTTTTTTT…TC
Settings: aptamer strand: ATP DNA aptamer (quencher-CACCTGGGGGAGTATTGCGGAGGAAGG + anchor), 100 nM annealed; ATP concentration: 500 uM
How it was run: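 The fluorescence ratio divides summed target-cycle Cy3 intensity by summed buffer-cycle Cy3 intensity for each cluster and is averaged per switch-domain sequence. Cy3-labelled switching-strand clusters on a modified Illumina MiSeq flow-cell were annealed to 100 nM quencher-labelled ATP aptamer, then imaged in selection buffer and again after 15 min with 500 uM ATP at 22 °C. Five such cycles were run, with NaOH stripping and re-annealing between them, and clusters outside 100-1000 RFU were excluded.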
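Further: ATP exposure 15 min at 22 °C before imaging.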

Row | Sequence | switch fluorescence ratio
1 | ACGAAATAGG | 1.07 ± 0.035
2 | ACGAAATGTT | 0.988 ± 0.021
3 | ACGAACGGGG | 1.27 ± 0.1
4 | ACGAAGATTA | 1.03 ± 0.014
5 | ACGAAGATTT | 1.03 ± 0.066
6 | ACGAAGGGAG | 1.02 ± 0.031
7 | ACGAAGTTTT | 1.02 ± 0.0028
8 | ACGACCGGCA | 1.11 ± 0.098
9 | ACGACCTTGT | 1.03 ± 0.018
10 | ACGACGGGGG | 1.2 ± 0.23
11 | ACGACTCCCG | 1.109 ± 0.0044
12 | ACGACTGTAG | 1.02 ± 0.029
13 | ACGACTTTTG | 0.995 ± 0.042
14 | ACGAGACGAC | 1.06 ± 0.023
15 | ACGAGACGC | 1.16 ± 0.031
16 | ACGAGATGAC | 1.05 ± 0.067
17 | ACGAGCCATG | 1.1 ± 0.015
18 | ACGAGGGATG | 1.01 ± 0.029
19 | ACGAGGGGAA | 1.015 ± 0.0057
20 | ACGAGGGGGC | 1.24 ± 0.34
21 | ACGAGGTGGG | 0.987 ± 0.017
22 | ACGAGGTTTT | 1.03 ± 0.042
23 | ACGAGTTCGC | 1.04 ± 0.025
24 | ACGATAATCG | 0.996 ± 0.008
25 | ACGATCAGCA | 1.05 ± 0.047
26 | ACGATCGGGC | 1.06 ± 0.05

Row | Sequence | switch fluorescence ratio
27 | ACGATCTCCC | 1.31 ± 0.098
28 | ACGATCTTGC | 1.02 ± 0.035
29 | ACGATGTACT | 1.1 ± 0.013
30 | ACGATGTTGG | 0.994 ± 0.023
31 | ACGATTATGC | 1.04 ± 0.11
32 | ACGATTTTTC | 0.974 ± 0.056
33 | ACGCAGCTGT | 1.379 ± 0.0027
34 | ACGCAGTTCC | 1.151 ± 0.0075
35 | ACGCATTACA | 3.9 ± 1.6
36 | ACGCCAATGT | 1.34 ± 0.076
37 | ACGCCACATT | 1.55 ± 0.091
38 | ACGCCAGCTA | 1.137 ± 0.004
39 | ACGCCCTTTT | 1.05 ± 0.052
40 | ACGCCGGGGG | 1.01 ± 0.031
41 | ACGCCGGGGT | 1.3 ± 0.51
42 | ACGCGCCTGG | 1.05 ± 0.043
43 | ACGCGCGTCG | 1 ± 0.063
44 | ACGCGGCGAT | 1.08 ± 0.026
45 | ACGCGGGTTT | 1.02 ± 0.02
46 | ACGCTCATGT | 1.05 ± 0.013
47 | ACGCTGCCGG | 1.1 ± 0.057
48 | ACGGAAATGT | 1.18 ± 0.1
49 | ACGGACGCCA | 1.21 ± 0.019
50 | ACGGAGGCAT | 1.31 ± 0.024
51 | ACGGAGGGAT | 1.32 ± 0.032
52 | ACGGAGTAAA | 0.99939 ± 0.00086

Row | Sequence | switch fluorescence ratio
53 | ACGGATGTTT | 0.997 ± 0.022
54 | ACGGATTGAA | 1.003 ± 0.0058
55 | ACGGATTTAG | 1.024 ± 0.01
56 | ACGGCATTTC | 1.28 ± 0.047
57 | ACGGCCAAGG | 1.05 ± 0.031
58 | ACGGCGCTTG | 1.051 ± 0.0053
59 | ACGGCTACGG | 1.02 ± 0.018
60 | ACGGGAGTGC | 1.03 ± 0.046
61 | ACGGGATGTG | 0.978 ± 0.016
62 | ACGGGATTTC | 1.05 ± 0.028
63 | ACGGGCAACG | 0.9743 ± 0.0065
64 | ACGGGCACTT | 1.12 ± 0.041
65 | ACGGGCATCG | 1.02 ± 0.032
66 | ACGGGCCTTC | 1.03 ± 0.012
67 | ACGGGCTTAG | 1.01 ± 0.016
68 | ACGGGGAAGG | 1.03 ± 0.035
69 | ACGGGGCGGC | 1.11 ± 0.028
70 | ACGGGGCGTT | 1.01 ± 0.012
71 | ACGGGGGAGG | 1.02 ± 0.028
72 | ACGGGGGATG | 0.995 ± 0.025
73 | ACGGGGGCCG | 0.993 ± 0.041
74 | ACGGGGGTT | 0.98 ± 0.017
75 | ACGGGGTAGA | 1.03 ± 0.052
76 | ACGGGGTGTC | 1.08 ± 0.089
77 | ACGGGGTTTT | 1.01 ± 0.017
78 | ACGGGTAATT | 1.02 ± 0.037

Row | Sequence | switch fluorescence ratio
79 | ACGGGTAGGG | 1.05 ± 0.035
80 | ACGGGTTCCT | 1 ± 0.025
81 | ACGGGTTGTC | 0.981 ± 0.11
82 | ACGGGTTTGG | 1.01 ± 0.023
83 | ACGGTAGAAC | 1.04 ± 0.021
84 | ACGGTAGTGC | 1.04 ± 0.022
85 | ACGGTATTG | 1.19 ± 0.037
86 | ACGGTCAGGG | 1.046 ± 0.0074
87 | ACGGTCGGCT | 1.04 ± 0.048
88 | ACGGTGACGG | 1.02 ± 0.04
89 | ACGGTGATCA | 1.03 ± 0.038
90 | ACGGTGCCAA | 1.02 ± 0.034
91 | ACGGTGTGCG | 1 ± 0.058
92 | ACGGTTATTT | 1.072 ± 0.01
93 | ACGGTTCCAT | 0.97 ± 0.057
94 | ACGGTTGGTG | 1.01 ± 0.027
95 | ACGGTTTTTC | 1.0014 ± 0.0005
96 | ACGTAAAAGT | 1.25 ± 0.41
97 | ACGTAACATG | 1.24 ± 0.015
98 | ACGTAATGTC | 1.25 ± 0.12
99 | ACGTAATTAA | 1.13 ± 0.026
100 | ACGTAGAATG | 1.06 ± 0.015
101 | ACGTAGACGT | 1.02 ± 0.018
102 | ACGTAGTGCG | 1 ± 0.023
103 | ACGTATGTTG | 1.022 ± 0.0017
104 | ACGTCAAGAG | 1.45 ± 0.0026

Row | Sequence | switch fluorescence ratio
105 | ACGTCAGTTG | 0.975 ± 0.012
106 | ACGTCATAGT | 1.14 ± 0.047
107 | ACGTCCAAAA | 1.04 ± 0.026
108 | ACGTCCGCTA | 2.6 ± 0.064
109 | ACGTCGATGG | 0.995 ± 0.019
110 | ACGTGACCAT | 1.33 ± 0.047
111 | ACGTGAGGTT | 1.01 ± 0.059
112 | ACGTGAGTGT | 0.977 ± 0.0076
113 | ACGTGAGTTT | 0.957 ± 0.035
114 | ACGTGATTTT | 1.09 ± 0.065
115 | ACGTGCAGTC | 1.12 ± 0.083
116 | ACGTGGTCCA | 0.985 ± 0.037
117 | ACGTGGTTAG | 1 ± 0.029
118 | ACGTGTCTTG | 1.01 ± 0.013
119 | ACGTGTGATG | 0.99 ± 0.024
120 | ACGTGTTAAT | 1.005 ± 0.0017
121 | ACGTTAAATG | 1.13 ± 0.053
122 | ACGTTAAGAT | 1.29 ± 0.26
123 | ACGTTACTCA | 1.5 ± 0.032
124 | ACGTTATGTT | 1.1 ± 0.035
125 | ACGTTGCACA | 1.18 ± 0.016
126 | ACGTTTGGCT | 0.954 ± 0.028
127 | ACGTTTGTTA | 1.002 ± 0.0059
128 | ACGTTTTAA | 0.9999 ± 0.0084
129 | ACTAAAAGGT | 1.01 ± 0.012
130 | ACTAAAGTGC | 1.01 ± 0.03

Row | Sequence | switch fluorescence ratio
131 | ACTAAATATG | 1.05 ± 0.046
132 | ACTAAATCGG | 1.02 ± 0.039
133 | ACTAAGGGAG | 1.01 ± 0.005
134 | ACTAATATAT | 0.999 ± 0.04
135 | ACTAATATCG | 1.04 ± 0.036
136 | ACTAATATTG | 1.032 ± 0.0054
137 | ACTACAGCTC | 1.15 ± 0.021
138 | ACTACGTAAA | 0.997 ± 0.046
139 | ACTACTACTT | 1.16 ± 0.019
140 | ACTACTGACA | 1.24 ± 0.04
141 | ACTAGAAGAC | 1.04 ± 0.012
142 | ACTAGGGATG | 0.987 ± 0.014
143 | ACTAGTATGG | 1.03 ± 0.053
144 | ACTAGTCAAA | 1.02 ± 0.012
145 | ACTAGTGGTC | 0.992 ± 0.042
146 | ACTATCGGGT | 1.04 ± 0.028
147 | ACTATTATCT | 1.023 ± 0.0099
148 | ACTATTATTT | 0.9887 ± 0.0022
149 | ACTCAGCTGG | 1.074 ± 0.0069
150 | ACTCAGTATA | 1.1 ± 0.02
151 | ACTCAGTTGT | 1.06 ± 0.059
152 | ACTCATATCG | 0.987 ± 0.029
153 | ACTCATGTTG | 0.98166 ± 0.00011
